# Reference: the supplement of paper PMC9233669
# Fewer inactive variants are shown than the library holds.
# What was measured:
# biotinyl-Met-oxazolone = experiment: self-aminoacylation, catalytic enhancement (BMO) (fold over background); higher = more active; k-Seq, kA / k0A0; sequences stand for … in GGGAAUGGAUCCACAUCUACGAAUUC…UUCACUGCAGACUUGACGAAGCUG
# Procedure, shortened: (§1)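 Mutagenized RNA pools with a 21-nt variable region (0.43 μM) reacted with each biotinyl-aminoacyl-oxazolone at 2–1250 μM. Reactions ran in 50 μL HEPES/NaCl/KCl/MgCl2/CaCl2 buffer with 5% acetonitrile, pH 6.9–7.0, for 90 minutes at room temperature. Streptavidin-captured RNA was quantified by triplicate qPCR and Illumina sequencing, and per-sequence fraction reacted was fit to a pseudo-first-order model with 1000 bootstraps. Catalytic enhancement is median kA divided by the uncatalyzed rate, the low-activity peak of a bimodal Gaussian fit.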
# biotinyl-Trp-oxazolone = experiment: self-aminoacylation, catalytic enhancement (BWO) (fold over background); higher = more active; k-Seq, kA / k0A0; sequences stand for … in GGGAAUGGAUCCACAUCUACGAAUUC…UUCACUGCAGACUUGACGAAGCUG
# Procedure, shortened: as §1
# biotinyl-Val-oxazolone = experiment: self-aminoacylation, catalytic enhancement (BVO) (fold over background); higher = more active; k-Seq, kA / k0A0; sequences stand for … in GGGAAUGGAUCCACAUCUACGAAUUC…UUCACUGCAGACUUGACGAAGCUG
# Procedure, shortened: as §1
# biotinyl-Leu-oxazolone = experiment: self-aminoacylation, catalytic enhancement (BLO) (fold over background); higher = more active; k-Seq, kA / k0A0; sequences stand for … in GGGAAUGGAUCCACAUCUACGAAUUC…UUCACUGCAGACUUGACGAAGCUG
# Procedure, shortened: as §1
# biotinyl-Phe-oxazolone = experiment: self-aminoacylation, catalytic enhancement (BFO) (fold over background); higher = more active; k-Seq, kA / k0A0; sequences stand for … in GGGAAUGGAUCCACAUCUACGAAUUC…UUCACUGCAGACUUGACGAAGCUG
# Procedure, shortened: as §1
# biotinyl-Ile-oxazolone = experiment: self-aminoacylation, catalytic enhancement (BIO) (fold over background); higher = more active; k-Seq, kA / k0A0; sequences stand for … in GGGAAUGGAUCCACAUCUACGAAUUC…UUCACUGCAGACUUGACGAAGCUG
# Procedure, shortened: as §1
Sequence,self-aminoacylation (biotinyl-Met-oxazolone),self-aminoacylation (biotinyl-Trp-oxazolone),self-aminoacylation (biotinyl-Val-oxazolone),self-aminoacylation (biotinyl-Leu-oxazolone),self-aminoacylation (biotinyl-Phe-oxazolone),self-aminoacylation (biotinyl-Ile-oxazolone)
CUUACCCUGGUCAUCAAGUGA [Fam2.1 aminoacylation ribozyme variant],2.58,3.4,1.93,2.58,4.44,1.67
CUUACCCUGGUCAUCGACUGA [Fam2.1 aminoacylation ribozyme variant],0.673,1.31,0.739,0.833,0.459,1.1
CUUACCCUGGUCAUCGAGUGG [Fam2.1 aminoacylation ribozyme variant],8.78,7.54,3.74,8.35,16.9,3.47
CUUACCCUGGUCAUCUAGUGA [Fam2.1 aminoacylation ribozyme variant],7.9,10.4,3.89,8.12,29.7,3.75
CUUCACCCAGGUCAUCGGGUG [Fam2.2 aminoacylation ribozyme variant],4.41,3.73,3.34,3.23,25.2,2.29
CUUCACCUAGGUCACCGGGUG [Fam2.2 aminoacylation ribozyme variant],3.54,5.51,3.81,5.4,21.9,2.92
CUUCACCUAGGUCAGCGGGUG [Fam2.2 aminoacylation ribozyme variant],3.27,4.01,3.88,4.96,9.81,3.62
CUUCACCUAGGUCUUCGGGUG [Fam2.2 aminoacylation ribozyme variant],6.17,6.37,5.98,6.81,34.1,4.13
CUUCUUCAAACAAUCGCUCUG [Fam1A.1 aminoacylation ribozyme variant],0.85,1.55,0.928,0.823,1.72,0.783
CUUCUUCAAACAAUCGGCCUG [Fam1A.1 aminoacylation ribozyme variant],1.72,28.5,1.48,1.88,31.1,1.34
CUUCUUCAAACAAUCGGUCUU [Fam1A.1 aminoacylation ribozyme variant],0.814,7.08,0.925,0.997,13.4,0.878
CUUCUUCAAACACUCGGUCUG [Fam1A.1 aminoacylation ribozyme variant],1.04,0.901,0.977,0.791,0.651,0.938
CUUCUUCAAACUAUCGGUCUG [Fam1A.1 aminoacylation ribozyme variant],0.943,0.962,1.01,1,1.22,1.26
CUUUCCCUGGUCAUCGAGUGA [Fam2.1 aminoacylation ribozyme variant],8.78,10.6,5.04,8.95,7.03,4.62
GAACACUUCAAGCAAUCGGUC [Fam1B.1 aminoacylation ribozyme variant],1.53,18.6,2.03,1.96,23.3,2.05
GAACUUCAAACAAUCGGUCUG [Fam1A.1 aminoacylation ribozyme variant],1.7,35.8,1.66,2.4,65.3,1.85
GACUUUGCUAAUAGUCGCAAG [Fam3.1 aminoacylation ribozyme variant],2.11,1.97,1.72,1.85,2.88,1.74
GAGUUAGCUAAUAGUCGCAAG [Fam3.1 aminoacylation ribozyme variant],1.5,2.62,1.64,2.12,2.62,2.14
GAGUUCGCUAAUAGUCGCAAG [Fam3.1 aminoacylation ribozyme variant],1.91,2.21,2.52,2.71,8.98,2.8
GAGUUUGCCAAUAGUCGCAAG [Fam3.1 aminoacylation ribozyme variant],1.1,2.08,1.48,1.09,4.39,1.7
GAGUUUGCUAAUAGUCGUAAG [Fam3.1 aminoacylation ribozyme variant],1.4,8.52,1.17,1.28,30.8,1.4
GAGUUUGCUACUAGUCGCAAG [Fam3.1 aminoacylation ribozyme variant],1.04,1.99,1.47,1.66,1.59,1.31
GAGUUUGCUAGUAGUCGCAAG [Fam3.1 aminoacylation ribozyme variant],1.28,0.876,1.04,0.89,1.92,1.21
GAGUUUGCUCAUAGUCGCAAG [Fam3.1 aminoacylation ribozyme variant],1.73,2.62,1.59,2.12,7.43,1.72
GCACACGUCAAGCAAUCGGUC [Fam1B.1 aminoacylation ribozyme variant],2.47,3.95,2.85,2.18,11.5,2.63
GCACACUUCAAGCAAUCCGUC [Fam1B.1 aminoacylation ribozyme variant],1.2,2.01,1.98,1.71,1.76,1.66

Sequence,self-aminoacylation (biotinyl-Met-oxazolone),self-aminoacylation (biotinyl-Trp-oxazolone),self-aminoacylation (biotinyl-Val-oxazolone),self-aminoacylation (biotinyl-Leu-oxazolone),self-aminoacylation (biotinyl-Phe-oxazolone),self-aminoacylation (biotinyl-Ile-oxazolone)
GCACACUUCAAGCAAUCGGUA [Fam1B.1 aminoacylation ribozyme variant],1.98,3.53,2.5,2.26,2.95,2.84
GCACACUUCAAGCGAUCGGUC [Fam1B.1 aminoacylation ribozyme variant],1.33,2.19,1.82,1.54,1.41,1.66
GCACACUUUAAGCAAUCGGUC [Fam1B.1 aminoacylation ribozyme variant],1.04,1.44,1.17,1.11,1.39,1.3
GCACUUCAAACAAUCGGUCUG [Fam1A.1 aminoacylation ribozyme variant],2.32,62.3,2.16,4.11,156,2.33
GCUACCCUGGUCAUCGAGUGA [Fam2.1 aminoacylation ribozyme variant],11.4,15.5,6.39,12.3,29.5,6.27
GGUCACCUAGGUCAUCGGGUG [Fam2.2 aminoacylation ribozyme variant],4.37,6.88,5.01,3.98,30.3,4.07
GUACUUCAAAAAAUCGGUCUG [Fam1A.1 aminoacylation ribozyme variant],1.16,7.93,1.11,1.62,7.83,1.57
GUACUUCAAACAAACGGUCUG [Fam1A.1 aminoacylation ribozyme variant],1.22,1.15,1.15,1.31,1.72,1.43
GUACUUCAAACAACCGGUCUG [Fam1A.1 aminoacylation ribozyme variant],1.21,2.02,1.54,1.23,4.78,1.67
GUACUUCAAACAAUCGGUCAG [Fam1A.1 aminoacylation ribozyme variant],1.31,7.34,1.34,1.43,7.14,1.5
GUACUUCAAACAAUCGGUCUC [Fam1A.1 aminoacylation ribozyme variant],1.65,26.5,1.4,2.06,39.5,1.5
GUACUUCAAACAAUCGGUCUU [Fam1A.1 aminoacylation ribozyme variant],1.14,12,1.3,1.49,12.8,1.43
GUACUUCAAACAAUCGUUCUG [Fam1A.1 aminoacylation ribozyme variant],0.889,2.37,1.13,0.972,2.04,1.15
GUACUUCAAACAAUUGGUCUG [Fam1A.1 aminoacylation ribozyme variant],1.18,1.75,1.16,1.34,1.82,1.36
GUACUUCAAACUAUCGGUCUG [Fam1A.1 aminoacylation ribozyme variant],1.29,1.46,1.26,1.14,1.78,1.38
GUACUUCAACCAAUCGGUCUG [Fam1A.1 aminoacylation ribozyme variant],1.39,15.1,1.28,1.59,16.5,1.39
GUGCACCUAGGUCAUCGGGUG [Fam2.2 aminoacylation ribozyme variant],3.85,6.04,4.64,3.9,26.8,3.96
GUUACCCUGGCCAUCGAGUGA [Fam2.1 aminoacylation ribozyme variant],6.73,9.03,5,8.07,43.7,4.06
GUUACCCUGGUCAACGAGUGA [Fam2.1 aminoacylation ribozyme variant],5.98,6.61,3.22,6.2,42.7,3.72
GUUACCCUGGUCAUCGAGGGA [Fam2.1 aminoacylation ribozyme variant],5.05,5.33,2.7,4.18,4.93,3.06
GUUACCCUGGUUAUCGAGUGA [Fam2.1 aminoacylation ribozyme variant],11.6,13,5.74,11.8,57.6,5.48
GUUACUCUGGUCAUCGAGUGA [Fam2.1 aminoacylation ribozyme variant],6.92,9.78,4.18,7.08,32.9,4.98
GUUCACCAAGGUCAUCGGGUG [Fam2.2 aminoacylation ribozyme variant],6.5,6,4.45,8.83,64.7,4.16
GUUCACCGAGGUCAUCGGGUG [Fam2.2 aminoacylation ribozyme variant],6.57,7.43,4.56,8.58,55.9,4.56
GUUCACCUACGUCAUCGGGUG [Fam2.2 aminoacylation ribozyme variant],4.35,4.3,3.69,5.15,31,3.26
